Measurements reported in patent US20210238279A1 (Johns Hopkins, published 2021).
Positions count from the first letter of the chain named.

T1: human ZnT8-His (human, UniProt Q8IWU4-2 1-320, limits assumed)
T1 construct: Over-expressed in HEK293 cells, solubilized with DDM and immobilized on Ni-NTA plates (native or unfolded with 2% SDS), or SDS-denatured on immunoblots; also called human ZnT8 with C-terminal poly-histidine tag; not shown: C-terminal poly-histidine tag
T1 sequence (looked up): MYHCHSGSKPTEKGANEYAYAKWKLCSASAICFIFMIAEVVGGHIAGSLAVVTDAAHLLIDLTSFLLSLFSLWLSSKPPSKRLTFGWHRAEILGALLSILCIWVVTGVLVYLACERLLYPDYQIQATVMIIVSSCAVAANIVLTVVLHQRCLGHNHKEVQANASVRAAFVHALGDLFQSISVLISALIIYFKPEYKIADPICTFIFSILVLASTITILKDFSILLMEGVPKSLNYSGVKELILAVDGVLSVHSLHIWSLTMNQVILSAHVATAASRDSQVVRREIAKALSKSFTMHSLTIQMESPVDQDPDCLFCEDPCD

T2: mouse ZnT8-His (mouse, UniProt Q8BGG0 1-367, limits assumed)
T2 construct: Over-expressed in HEK293 cells, solubilized with DDM and immobilized on Ni-NTA plates, or SDS-denatured on immunoblots; not shown: C-terminal poly-histidine tag
T2 sequence (looked up): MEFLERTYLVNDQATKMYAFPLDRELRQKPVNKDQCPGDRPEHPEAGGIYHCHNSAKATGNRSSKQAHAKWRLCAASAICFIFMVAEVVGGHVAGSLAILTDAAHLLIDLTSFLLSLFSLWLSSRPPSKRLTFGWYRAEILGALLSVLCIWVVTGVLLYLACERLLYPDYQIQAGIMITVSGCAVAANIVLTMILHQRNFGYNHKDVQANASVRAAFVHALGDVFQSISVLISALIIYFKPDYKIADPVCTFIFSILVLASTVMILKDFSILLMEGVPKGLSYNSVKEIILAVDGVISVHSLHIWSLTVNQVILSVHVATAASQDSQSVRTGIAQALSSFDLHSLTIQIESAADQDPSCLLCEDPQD

B1: mAb20 (antibody, V domains shown)
VH: QIQLVQSGPELKKPGETVKISCKASGYIFTNYPMHWVKQAPGKGLKWMGWINTYSGVPTHADDFKGRFAFSLETSANSAFLQINNLKNEDTATYFCTRSRITPTGGYAMDYWGQGTSVTVSS
VL: DVVMTQTPLSLPVSLGDQASISCRSSQSLVHSNGNTYLHWYLQKPGQSPNLLISKVSNRFSGVPERFSGSGSGTDFTLKISRVEAEDLGVYFCSQNTHVPWTFGGGTKLEIKR
notes: Mouse hybridoma mAb purified on protein A/G; In some assays it was labelled with Alexa Fluor 488 or terbium cryptate; also called monoclonal antibody mAb20; anti-ZnT8 mAb20
B2: mAb39 (antibody, V domains shown)
VH: QVQLQQPGAELVKPGASVKLSCKASGYSFTTYWMHWVKQRPGQGLEWVGDINPRNGRTNYNEKSKSKATLTVDISSSTVYMQVSSLTSEDSAVYYCAIWSGAMDYWGPGTSVTVSS
VL: B1 VL with A19P, R24K, S32N, N50K, S54Y, E65D, N96T, W101P
notes: Mouse hybridoma mAb purified on protein A/G; In some assays it was labelled with Alexa Fluor 555 or d2; also called monoclonal antibody mAb39; anti-ZnT8 mAb39

Columns and labels:
human ZnT8-His [1] = target: T1, human ZnT8-His; assay: ELISA on ZnT8-His on Ni-NTA plate, native against unfolded with 2% SDS
From the text: FIG. 4A-4C. mAb binding stabilized ZnT8 folding (FIG. 4A) mAb binding to folded or denatured ZnT8. ZnT8-His in detergent micelles was immobilized to a Ni-NTA plate in replication w/o SDS denaturation. ELISAs against denatured (triangle) and non-denatured ZnT8 (circle) were compared for mAb20 and mAb39 as indicated. CTDA and MSA were used as a positive and negative control, respectively. Error bars are standard deviations. (FIG. 4B) mAb binding to folded ZnT8-GFP in detergent micelles. mAb20 or mAb39 was mixed with ZnT8-GFP and then the binding mixture was analyzed by size-exclusion HPLC with GFP-fluorescence detection. […] (FIG. 4C) Protection of ZnT8 unfolding. Aliquots of ZnT8 in detergent micelles were incubated with Fab20 (red), Fab39 (magenta), or Fab20+Fab39 (brown). […] After a designated time of heat denaturation as indicated, protein aggregates were removed by ultracentrifugation, and the amount of remaining ZnT8 in the supernatant was detected by mAb20 immunoblotting (upper panel). […]
Folding dependence. To compare the difference in mAb bindings to native and denatured ZnT8, we used 2% SDS to unfold immobilized ZnT8-His on a Ni-NTA plate, and then compared denatured ELISA readouts with non-denatured replicates. The native readout of mAb20 was about two-fold higher than the denatured readout (FIG. 4A), indicating a moderate selectivity for folded conformation over unfolded ZnT8. […]

human ZnT8-His [2] = target: T1, human ZnT8-His; assay: ELISA, ZnT8-His on Ni-NTA plate, HRP-conjugated secondary antibody; curve taken as human by paragraph 166
From the text: (§1) FIG. 7A-7D. mAb binding specificities (FIG. 7A) mAb binding to ZnT8-His immobilized to Ni-NTA plate. Bound mAb20 (red) or mAb39 (magenta) was detected by an HRP-conjugated secondary antibody. Solid lines are least-squares fits of binding datapoints to a one-component binding process. Error bars are standard errors (n=8). (FIG. 7B) SDS-denatured mouse ZnT8-His (labeled as M) and human ZnT8-His (labeled as H) on immunoblots were detected by mAb20 or mAb39 as indicated. […] (FIG. 7C) Detection of endogenous human ZnT8 in EndoC-βH cells by mAb20 or […] immunoblotting. An equal amount of EndoC-βH lysate (5 μg total protein) was loaded to each lane. (FIG. 7D) Immunoblotting of HEK lysates with or with over-expression of a ZnT homolog as indicated. An approximately equal amount of total lysate protein (5 μg) was located to each lane, probed by either mAb20, mAb39, or anti-FALG antibody as indicated. FIG. 8. HTRF response to human ZnT8, mouse ZnT8 and human ZnT3.
(§2) Binding specificities. […] Of note, the epitope-masking effect of ZnT8 immobilization weakened the apparent binding affinities of both mAbs as compared to the affinities determined by flow-cytometry, and such a weakening effect was more pronounced for mAb39, probably due to a closer proximity of the mAb39 epitope to the C-terminal His-tag. Next, we compared the immunoreactivities of mAbs to denatured ZnT8.

mouse ZnT8-His [3] = target: T2, mouse ZnT8-His; assay: ELISA titration on ZnT8-His immobilized on Ni-NTA plate; reference is human ZnT8-His; fold ratio of mouse to human apparent affinity; Ni-NTA plate titration
From the text: as §1, §2

human ZnT8-His [4] = target: T1, human ZnT8-His; assay: ELISA, ZnT8-His on Ni-NTA plate, HRP-conjugated secondary antibody; binder taken from the axis label and paragraph 166; curve taken as human
From the text: as §1, §2

mouse ZnT8-His [5] = target: T2, mouse ZnT8-His; assay: ELISA titration on ZnT8-His immobilized on Ni-NTA plate; reference is human ZnT8-His
From the text: as §1, §2

mouse ZnT8-His [6] = target: T2, mouse ZnT8-His; assay: ELISA, ZnT8-His on Ni-NTA plate, HRP-conjugated secondary antibody; binder taken from the axis label and paragraph 166; curve taken as mouse
From the text: as §1, §2

Binder	ratio of native to SDS-denatured ELISA readout (human ZnT8-His [1]) [fold]	EC50 (read off the curve) (human ZnT8-His [2]) [nM]	fold difference in apparent binding affinity, mouse against human ZnT8 (mouse ZnT8-His [3]) [fold]	EC50 (read off the curve) (human ZnT8-His [4]) [nM]	fold difference in apparent binding affinity, mouse against human ZnT8 (mouse ZnT8-His [5]) [fold]	EC50 (read off the curve) (mouse ZnT8-His [6]) [nM]
B1	~2	~3	567			
B2				~10	2	~30
